Test results published in patent publication US6770458.

Columns and labels:
Experiment in all cases: cell-based or functional assay
[1] = molecular target: p53 fused to the GAL4 DNA-binding domain (pAS2) (UniProt P04386)
[2] = molecular target: CDK2 fused to the GAL4 DNA-binding domain (pAS2) (UniProt P04386)
[3] = molecular target: Smad7 (expression construct, tag not specified)

p53 fused to the GAL4 DNA-binding domain (pAS2), sequence (P04386 1-147): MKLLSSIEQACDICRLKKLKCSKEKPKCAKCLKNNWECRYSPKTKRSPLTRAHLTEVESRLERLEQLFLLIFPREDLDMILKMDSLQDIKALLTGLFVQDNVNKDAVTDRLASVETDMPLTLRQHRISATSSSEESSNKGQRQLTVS
CDK2 fused to the GAL4 DNA-binding domain (pAS2), sequence (P04386 1-147): as above

β-galactosidase Activity (relative scale) [1] | β-galactosidase Activity (relative scale) [2] | fold repression of (CAGA)9 MLP-Luc reporter activity in HepG2 cells [3] [fold] | Substance
1.1 |  |  | FKBP12.6 in pACT (from UniProt Q9Z2I2 1-108)
< 1 | 1.2 |  | STRAP (Serine-Threonine Kinase Receptors Associated Protein) in pACT (from UniProt Q9Z1Z2 1-350)
 |  | 105 | STRAP (expression construct, tag not specified) (from UniProt Q9Z1Z2 1-350)
